The series is described as follows: soluble on expression in E. coli; label from the status in PepcDB or PDB records.
In the case of “MTEKKSDRTAAKKRSEQAVHELVTRIDTHPGDADAYYELATVLVDLKSFAQAEELLMKALGLFQAQPAVVDKLHYGLGNVYYAAEDYPKAIQQFDSLGAQWKGAGYLMLAQSYMANGDHKRALAFALTALASQPDDVATLQVVAENLLALGNMAQAAQYYDQLLAIDPKNGRAIFDRGLVAMVQGTPYADYFERAQTLDPQYFEQGQQRLADIEKFMQQTPDSDQQLEHHHHHH”, the “soluble on expression in E. coli” value is reported as “soluble”.
“MKSARKNKNIIIDQNEFGILSLIKEGLLGTCTHLMNEKEVNEIIKSGKFKGESFPYPLSFAPKNAEEALNDIKSGDRIDLMLDEKVVGHIDFKSQFKNNKNFSDIFSPNTCSLEDMGTTCISGKIEIYNSQIEKIKENFQQIKNNLNAQKITAIVSSFDPLHRAHERMFRWTIDKADLVVIFLVESFDVNGFEFELKEAYLKKFIQNYLPPDRIFIFPLKNINIFHAHLNPGLESIIAKSLGCTKLVVGQNHTGLGMFYDDNQPKTILDDFSKDYGIEVIVLPEFVFCDQCRMIVSTRSCPHGCHHHLHYNSQSLKDLLRAGIIPPAIFIRKEVSSVILTSLFPNRLKNMQKIYNELFPTDGILEYKNDEEFYQKLLEIHQMSYMV”: the “soluble on expression in E. coli” value is reported as “not soluble”.
Next, “MPRDNSSSSRRRRGSKRCPTGMSSNKTSRSTSSSSVTSSSGHGASSFSEDSSVRSVTNSVRSTRSAGSIMSMASAEASVVAPDLTIYHGDRKQSYQLADKGKMVVINRKNGVIVYMLRCVDGRRVYIEKSSEGASLILTNQRGKVIKALAGHY”: “not soluble”.
Take “IGQVKYNIGGSLSDAWSKVLELANNENVPNEGKNENRLIGMPRQALYVYQTDGIFQSADEVAAYYEKYYWNADHSGPKANNILPAPQEASTNTLRPGARKVVDLNGDGAITKDDLYYAGDMAPRLTFGFKLGLEWKGIDFSAFFQGVGKQVLLRGGYLAAPWTTNYVLQNKNFAGKMWSENNRDAEYTIASRDQNFNKWNYNNKDVSVQNNRYVRLKSLVVGYSLPQKWISKAGLSKLRVYFSGDDLWEWTKVKDGYDPEYGENSNNTFPFSRLLTFGVDVTF”: the “soluble on expression in E. coli” value is “not soluble”.
As to “RPIGIYEKATPTHCTWLERLNFAKELGFDFVEMSIDERDERLARLDWSKEERLEVVKAIYETGVRIPSICFSGHRRYPLGSKDPVLEEKSLELMKKCIELAQDLGVRTIQLAGYDVYYEEKSPQTRQRFIKNLRKACDWAEEAQVVLAIEIMDDPFISSIEKYLAIEKEIDSPFLFVYPDIGNVSAWHNDIYSEFYLGHHAIAALHLKDTYAVTESSKGQFRDVPFGQGCVKWEEAFDILKETNYNGPFLIEMWSENCETVEETRAAIQEAQAFLYPLIKKAGLM”, the “soluble on expression in E. coli” value is on record as “not soluble”.
Under “MSLKALIFDMDGVLVDSMPFHAAAWKKAFLEMGMEIQDEDIYAIEGSNPRNGLPLLIRKARKEPEDFDFEAITSIYRQEFNRIFKLKAFDGMKECLEFLKSRFLLSVVSGSDRLIVNGIVDQLFPGIFDTVVTGDDVLNSKPDPDPFLKAVELLNVGKEECVVIENAVLGVEAAKKADIYCIGVPTYVKPSELDRADLVVGNHQKLMEHLLSLEPLFSPEFIPGRREGHHHHHH” stands “soluble”; under “QIAPLFWLENTIEKVEGMRPYTPLEMAGREVYIREGCYVCHSQMIRPMRDEVERYGHYSLAAESMYDHPFQWGSKRTGPDLARVGGRYSDDWHVDHMRDPQSVVPESVMPKYGYLERTMIDGKYIGDLMAANAIVGVPYTDEMIEAAQADFAAQADPDSDYDGLLERYGDKVNVRNFDGQPGVSEADALIAYLQMLGT”, “not soluble”.
Next, “MRLKLTHINHISHKIANDFIHSKLLELKAPRELLCELIEGILEKSVKKENAIDEQARELLEENTDEIEFMRMDERQLFWMIKRQIAQKEGFHLFWEERCNDLSHQILNKILDEDLIMFSVSENLIRNLIYKSIDTYSKAYESIENEVHEKIKHYKRKLPVGSDEYELVFERLYEEELRRKGFL”: “not soluble”.
For the sequence “MGSDKIHHHHHHMKTRYTYGGDEHVYVEIDDEMSLDAFFIALSLSKLVREANIPGVTEICPANASFEVRFDPDVIAPDEMMARIRELEGAAKAQEKRLDTRIIEIPVFYEDPWTHETLMRFRERHQDPSGTDLDYAARINGYDDAAAFIEAHHSQPWFVSMVGFVSGLPFLYQLVERQKQLEVPKYLRPRTDTPKLTVGYGGCFSCIYSVRGAGGYQMFGITPMPIFDPEQKISYLKDFMVFFRPGDIVKWKPIDRAEYDAITAQVEAGSYVPKIAEVAFDLDAFNKDMTGFNAKLMEALNDA”, the “soluble on expression in E. coli” value is recorded as “not soluble”.
Under “SRLITHNMLSCNIKGVTSGFPLRIEAGNVIEKEVDFNPDFIRHMFAKIEWKALVEGARSMGYAELPEESPDAAVLKSDEPFLKKLHHALLELHLEEGALVCPETGRKFPVNKGIPNMLLHEDEV” stands “soluble”; under “MGHHHHHHSHGPRDIISPELMADYLQPKLLGILAFFNMQLLSSSVGIEDKKMALNSLMSLMKLMGPKHVSSVRVKMMTTLRTGLRFKDDFPELCCRAWDCFVRCLDHACLGSLLSHVIVALLPLIHIQPKETAAIFHYLIIENRDAVQDFLHEIYFLPDHPELKKIKAVLQEYRKETSEST”, “not soluble”; under “SPEIMKNLSNNFGKAMDQCKDELSLPDSVVADLYNFWKDDYVMTDRLAGCAINCLATKLDVVDPDGNLHHGNAKDFAMKHGADETMAQQLVDIIHGCEKSAPPNDDKCMKTIDVAMCFKKEIHKLNWVPNMDLVIGEVLAEV”, “soluble”.
Next, “MSLAPFVAKDIRVDGVQGDLEQQIRASLPVRAGQRVTDNDVANIVRSLFVSGRFDDVKAHQEGDVLVVSVVAKSIISDVKIKGNSVIPTEALKQNLDANGFKVGDVLIREKLNEFAKSVKEHYASVGRYNATVEPIVNTLPNNRAEILIQINEDDKAKLASLTFKGNESVSSSTLQEQMELQPDSWWKLWGNKFEGAQFEKDLQSIRDYYLNNGYAKAQITKTDVQLNDEKTKVNVTIDVNEGLQYDLRSARIIGNLGGMSAELEPLLSALHLNDTFRRSDIADVENAIKAKLGERGYGSATVNSVPDFDDANKTLAITLVVDAGRRLTVRQLRFEGNTVSADSTLRQEMRQQEGTWYNSQLVELGKIRLDRTGFFETVENRIDPINGSNDEVDVVYKVKERNTGSINFGIGYGTESGISYQASVKQDNFLGTGAAVSIAGTKNDYGTSVNLGYTEPYFTKDGVSLGGNVFFENYDNSKSDTSSNYKRTTYGSNVTLGFPVNENNSYYVGLGHTYNKISNFALEYNRNLYIQSMKFKGNGIKTNDFDFSFGWNYNSLNRGYFPTKGVKASLGGRVTIPGSDNKYYKLSADVQGFYPLDRDHLWVVSAKASAGYANGFGNKRLPFYQTYTAGGIGSLRGFAYGSIGPNAIYAEYGNGSGTGTFKKISSDVIGGNAIATASAELIVPTPFVSDKSQNTVRTSLFVDAASVWNTKWKSDKNGLESDVLKRLPDYGKSSRIRASTGVGFQWQSPIGPLVFSYAKPIKKYENDDVEQFQFSIGGSFEGHHHHHH”: “not soluble”; “MGSDKIHHHHHHMLNMDFSRRVVIRTHEQHWVPSPAAGVERKPLAREEAERGHATSVVRYKPGSSFSTHEHPLGEEILVLEGVFSDETGHYPAGTYIRNPPGSSHAPFSEEGCTLLVKLHQFDPRDTATVRIDTNSGHWLPGIGGLQVMPLHEFEHERVALVKWPPNEAFQPHRHFGGEEIFVLSGEFRDEHGRYPAGSWIRSPHMSQHHPFVEQETVIWVKTGHLPVNHSPET”: “not soluble”.
Turning to “MHVVYPGSFDPLTNGHLDVIQRASRLFEKVTVAVLENPSKRGQYLFSAEERLAIIREATAHLANVEAATFSGLLVDFVRRVGAQAIVKGLRAVSDYEYELQMAHLNRQLYPGLETLFILAATRYSFVSSTMVKEIARYGGDVSKLVPPATLRALKAKLGQ”, the “soluble on expression in E. coli” value was “soluble”.
For the sequence “MSLKITRIDIHRTDLPVRGGVYRLSGGREYHSYDATIVSIETDTGLTGWGESTPFGSTYIAAHAGGTRAALELLAPAILGMDPRQHDRIWDRMRDTLKGHRDARAALDIACWDIAAQAAGLPLCDMTGGRVAGPVPVISSIGGDTPEAMRAKVARHRAQGFKGHSIKIGASEAEGGPALDAERITACLADRQPGEWYLADANNGLTVEHALRMLSLLPPGLDIVLEAPCASWAETKSLRARCALPLLLDELIQTETDLIAAIRDDLCDGVGLKVSKQGGITPMLRQRAIAAAAGMVMSVQDTVGSQISFAAILHLAQSTPRHLLRCALDTRAMTTAELAEIDAPLRDGGASAPSDPGLGLRVNRDALGTPVKTFGDPIEGHHHHHH”, the “soluble on expression in E. coli” value is “soluble”.
